Read-outs that look alike come from different tables or passages of the source. Non-standard residues stand in square brackets, D forms with d. Residues, ends and D or L forms follow the SMILES beside them. *: point of attachment. Sta = CC(C)C[C@H](N)[C@@H](O)CC(=O)O; Isovaleryl = CC(C)CC(=O)*
Tests used:
purified S1P(187-983) = biological target: T1, purified S1P(187-983) (Cricetulus griseus, UniProt Q9Z2A8); format: biochemical, hamster; conditions: for inhibition of S1P at extremely high concentrations: extremely high concentrations of inhibitor; for Relative Activity (comparative cleavage of fluorogenic synthetic peptidyl substrates): cleavage by purified S1P-C(187-983), MCA-peptide 100 μM, pH 8.0, 37° C.
T1 construct: 1.5-5 μg of purified S1P(187-983); made in house; host or cells: SRD-12B cells (CHO-derived) stably transfected with pCMV-S1P(983)-Myc-His (TR-3117, 'S1P(983) cells'); The protein was secreted into serum-free medium and purified on Ni-NTA agarose
T1 sequence (Q9Z2A8 187-983): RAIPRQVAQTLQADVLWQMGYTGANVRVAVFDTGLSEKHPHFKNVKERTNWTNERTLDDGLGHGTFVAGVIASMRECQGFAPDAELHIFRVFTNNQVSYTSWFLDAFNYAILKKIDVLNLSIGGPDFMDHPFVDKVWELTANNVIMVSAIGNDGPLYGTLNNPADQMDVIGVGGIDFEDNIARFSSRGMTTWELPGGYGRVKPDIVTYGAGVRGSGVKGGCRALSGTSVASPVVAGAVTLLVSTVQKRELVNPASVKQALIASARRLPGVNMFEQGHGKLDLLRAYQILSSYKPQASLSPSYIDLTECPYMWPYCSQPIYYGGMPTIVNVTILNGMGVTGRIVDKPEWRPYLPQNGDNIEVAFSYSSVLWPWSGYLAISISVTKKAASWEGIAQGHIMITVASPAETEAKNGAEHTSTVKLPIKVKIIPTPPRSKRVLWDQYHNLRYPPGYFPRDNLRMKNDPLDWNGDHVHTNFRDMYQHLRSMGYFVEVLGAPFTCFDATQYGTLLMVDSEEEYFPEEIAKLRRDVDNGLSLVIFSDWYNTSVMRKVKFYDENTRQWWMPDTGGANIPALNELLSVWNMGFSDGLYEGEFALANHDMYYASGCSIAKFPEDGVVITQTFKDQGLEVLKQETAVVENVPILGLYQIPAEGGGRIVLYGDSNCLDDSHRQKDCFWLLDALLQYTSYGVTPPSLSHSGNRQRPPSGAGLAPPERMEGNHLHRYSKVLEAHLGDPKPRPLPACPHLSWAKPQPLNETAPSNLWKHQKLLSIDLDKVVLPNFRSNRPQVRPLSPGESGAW
Protocol: Stock cultures of S1P(983) cells were grown in 850-cm^2 roller bottles in medium B supplemented with 5% (v/v) newborn calf lipoprotein-deficient serum and 500 μg/mL G418. On day 0, 10 roller bottles of S1P(983) cells were seeded at a density of ˜4×10^7 cells/roller bottles. On day 2, the medium was replaced with 100 mL of serum-free medium CHO-S-SFMII. The medium from each roller bottle was collected daily from day 3 to day 7. The collected medium was pooled, filtered through 0.45-μm cellulose acetate low-protein binding membrane filter units (Corning Costar) and stored at 4° C. for 0 to 4 days. On day 7, the filtered medium was adjusted to pH 8.0 by addition of tris-HCl at a final concentration of 25 mM, and then loaded onto four parallel 5-mL Ni-NTA agarose columns (Qiagen, Inc., Chatsworth, Calif.) equilibrated with 20 mL of buffer B (25 mM tris-HCl at pH 8.0, 10% (v/v) glycerol, 1 mM CaCl2). The chromatography was performed at 4° C. via gravity at ˜100 mL/hr. The column was washed with 40 mL of buffer B supplemented with 1M NaCl followed by 20 mL of buffer B without NaCl. […] The eluate was concentrated with a Centriprep 30 filter followed by a Centricon 30 filter (Amicon, Inc.).
S1P activity was measured fluorometrically with MCA-conjugated peptidyl substrates. Each reaction was carried out in 0.2 mL of assay buffer (25 mM tris, 25 mM Mes, 25 mM acetic acid, and 1 mM CaCl2 adjusted to pH 8.0 with concentrated NaOH). Reactions contained MCA-peptide (final concentration 100 μM, added in 2 μl DMSO) and 1.5-5 μg of purified S1P(187-983). After incubation for 0.5-5 h at 37° C., each reaction was terminated by addition of 1 mL of ice-cold 5 mM sodium EDTA. The liberated 7-amino-4-methylcoumarin (AMC) was measured with a Perkin-Elmer LS-30 luminescence spectrometer (360 nm excitation, 460 nm emission). A standard curve of fluorescence intensity was generated with different concentrations of AMC (Promega).

Ac-Arg-Ser-Leu-Lys-MCA = tested on: T2, Ac-Arg-Ser-Leu-Lys-MCA
T2 sequence: XSLX

Ac-Arg-Ser-Val-Leu-MCA = tested on: T3, Ac-Arg-Ser-Val-Leu-MCA
T3 sequence: XSVX

[1] = tested on: T4, Ac-Ser-Gly-Arg-Ser-Val-Leu-MCA
T4 sequence: XGRSVX

[2] = tested on: T5, Ac-Ser-Gly-Ser-Gly-Arg-Ser-Val-Leu-MCA
T5 sequence: XGSGRSVX

[3] = tested on: T6, Ac-Val-Phe-Ala-Ser-Leu-Lys-MCA
T6 sequence: XFASLX

[4] = tested on: T7, Ac-Val-Phe-Arg-Ser-Arg-Arg-MCA
T7 sequence: XFRSRX

[5] = tested on: T8, Ac-Val-Phe-Arg-Ser-Leu-Lys-MCA
T8 sequence: XFRSLX

Boc-Arg-Val-Arg-Arg-MCA = tested on: T9, Boc-Arg-Val-Arg-Arg-MCA
T9 sequence: XVRX

[6] = incubated with substrate Ac-VFRSLK-MCA

Row | Compound | inhibition of S1P (purified S1P(187-983); [6]) | Relative Activity (comparative cleavage of fluorogenic synthetic peptidyl substrates) (purified S1P(187-983)) | other results
1 | O[C@H](CS)[C@H](O)CS (racemic) [dithiothreitol] |  |  | inhibition of S1P at extremely high concentrations (purified S1P(187-983); [6]): also inhibited S1P
2 | c1cnc2c(c1)ccc1cccnc12 [1,10-phenanthroline] |  |  | inhibition of S1P at extremely high concentrations (purified S1P(187-983); [6]): also inhibited S1P
3 | N=C(N)c1ccc(CS(=O)(=O)F)cc1 [APMSF, (4-amindinophenyl)-methanesulfonyl fluoride] | not significantly inhibited |  | 
4 | O=C(O)CN(CCN(CC(=O)O)CC(=O)O)CC(=O)O [EDTA] |  |  | inhibition of S1P (purified S1P(187-983)): partially inhibited
5 | O=C(O)CN(CCOCCOCCN(CC(=O)O)CC(=O)O)CC(=O)O [EGTA] |  |  | inhibition of S1P at extremely high concentrations (purified S1P(187-983); [6]): also inhibited S1P
6 | O=S(=O)(F)Cc1ccccc1 [PMSF, phenylmethylsulfonyl fluoride] | not significantly inhibited |  | 
7 | Cl.NCCc1ccc(S(=O)(=O)F)cc1 [Pefabloc®] |  |  | inhibition of S1P at high concentrations (purified S1P(187-983); incubated with substrate Ac-VFRSLK-MCA, high concentrations of inhibitor): did inhibit S1P
8 | CC(=O)N[C@@H](CC(C)C)C(=O)N[C@@H](CC(C)C)C(=O)N[C@H](C=O)CCCNC(=N)N [leupeptin] | resistant |  | 
9 | CC(C)CC(=O)N[C@H](C(=O)N[C@H](C(=O)N[C@@H](CC(C)C)[C@@H](O)CC(=O)N[C@@H](C)C(=O)N[C@@H](CC(C)C)[C@@H](O)CC(=O)O)C(C)C)C(C)C [pepstatin] (Isovaleryl-VV[Sta]A[Sta]-OH) | resistant |  | 
10 | Ac-Arg-Ser-Leu-Lys-MCA [Ac-RSLK-MCA, fluorogenic MCA-conjugated peptidyl substrate] |  | 0.47 | 
11 | Ac-Arg-Ser-Val-Leu-MCA [Ac-RSVL-MCA, fluorogenic MCA-conjugated peptidyl substrate] |  | <0.1 | 
12 | Ac-Ser-Gly-Arg-Ser-Val-Leu-MCA [Ac-SGRSVL-MCA, fluorogenic MCA-conjugated peptidyl substrate] |  | <0.1 | 
13 | Ac-Ser-Gly-Ser-Gly-Arg-Ser-Val-Leu-MCA [Ac-SGSGRSVL-MCA, fluorogenic MCA-conjugated peptidyl substrate] |  | <0.1 | 
14 | Ac-Val-Phe-Ala-Ser-Leu-Lys-MCA [Ac-VFASLK-MCA, fluorogenic MCA-conjugated peptidyl substrate] |  | <0.1 | 
15 | Ac-Val-Phe-Arg-Ser-Arg-Arg-MCA [Ac-VFRSRR-MCA, fluorogenic MCA-conjugated peptidyl substrate] |  | <0.1 | 
16 | Ac-Val-Phe-Arg-Ser-Leu-Lys-MCA [Ac-VFRSLK-MCA, fluorogenic MCA-conjugated peptidyl substrate] |  | 1.0 | 
17 | Boc-Arg-Val-Arg-Arg-MCA [Boc-RVRR-MCA, fluorogenic MCA-conjugated peptidyl substrate] |  | <0.1 | 
18 | N-acetyl-leucinal-leucinal-norleucinal [ALLN] | resistant |  | 
19 | aprotinin | resistant |  | 
20 | purified S1P(187-983), secreted form from S1P(983)-Myc-His cells (hamster Site-1 protease) |  |  | Relative Activity (cleavage of fluorogenic MCA substrate, release of AMC) (relative activity) (Ac-Arg-Ser-Leu-Lys-MCA): 0.47; Relative Activity (cleavage of fluorogenic MCA substrate, release of AMC) (relative activity) (Ac-Arg-Ser-Val-Leu-MCA): < 0.1; Relative Activity (cleavage of fluorogenic MCA substrate, release of AMC) (relative activity) [1]: < 0.1; Relative Activity (cleavage of fluorogenic MCA substrate, release of AMC) (relative activity) [2]: < 0.1; Relative Activity (cleavage of fluorogenic MCA substrate, release of AMC) (relative activity) [3]: < 0.1; Relative Activity (cleavage of fluorogenic MCA substrate, release of AMC) (relative activity) [4]: < 0.1; Relative Activity (cleavage of fluorogenic MCA substrate, release of AMC) (relative activity) [5]: 1; Relative Activity (cleavage of fluorogenic MCA substrate, release of AMC) (relative activity) (Boc-Arg-Val-Arg-Arg-MCA): < 0.1

Reference: US6649593B1, “Modulators of SREBP processing” (priority 1999, dated 2003)
